Tests used:
Assay type in all cases: biochemical
[1] = Kinetic constants for n-alkanes: heptane; conditions: N.m = not measurable
Method: (§1) Rate measurements. Initial rates of product formation were determined at 25° C. in 100 mM KPi pH 8.0 buffer using purified protein (100 nM) and a substrate concentration of 1.6 mM. In a 5 mL-vial, 20 μL of alkane solution (in ethanol) were dissolved in 400 μL KPi buffer, to which 500 μL enzyme solution at 100-200 nM was added. Reaction was initiated by adding 100 μL of 5 mM NADPH solution, followed by stirring at 300 rpm for 1 minute, and quenched by adding 200 μL chloroform and stirring at 800 rpm for 10 sec. Solutions were transferred to an Eppendorf tube, to which internal standard (10 μL 25 mM 1-bromohexane in ethanol) was added. Tubes were vortexed for 10 sec and centrifuged for 30 sec at 10,000 g. Organic phase was removed and analyzed by GC. For propane, reactions were carried out in a 5 mL-scale using 100-400 nM purified enzyme, propane-saturated buffer (propane concentration≈1.6 mM) and a final NADPH concentration of 500 μM. Reactions were stopped by addition of 200 μL H2SO4 conc. and analyzed by derivatization to alkyl nitrites followed by GC-ECD analysis as described below.
(§2) Products from alkane reactions were identified and quantified by gas chromatography using authentic standards and calibration curves with internal standards. For the reactions with alkanes from pentane to decane, GC analyses were carried out using a Shimadzu GC-17A gas chromatograph, Agilent HP5 column (30 m×0.32 mm×0.1 μm film), 1 μL injection, FID detector, and the following separation program: 250° C. inlet, 250° C. detector, 50° C. oven for 3 min, 5° C./min gradient to 100° C., 25° C./min gradient to 230° C., and 230° C. for 3 min. For butane and propane (TTN) reactions, GC analyses were carried out using a Hewlett-Packard 5890 Series II Plus gas chromatograph, Supelco SPB-1 column (60 m×0.52 mm×0.5 μm film), 0.5 μL injection, FID detector, and the following separation program: 250° C. inlet, 275° C. detector, 80° C. oven for 2 min, 10° C./min gradient to 110° C., 25° C./min gradient to 275° C., and 275° C. for 2.5 min. For ethane and propane (rate) reactions, analysis of reaction mixtures was carried out by derivatization to alkyl nitrites followed by GC-ECD analysis. For laurate, reaction product analysis was carried out by derivatization with N-methyl-N-trimethylsilylheptafluorobutyramide followed by extraction with hexane. Organic solutions were analyzed by FID-GC.
To further investigate the evolution of substrate specificity, kinetic constants for the C5 to C8 alkanes were determined from Michaelis-Menten plots (Table 19). The preference of 35E11 and its evolutionary predecessors for medium-chain alkanes is indicated by their high C8/C5 specificities ((kcat/Km)8/(kcat/Km)5˜100), where Km appears to be the major contributing factor. C8/C5 specificity decreases to ˜5 in the immediate precursors of P450PMO and then switches altogether to the smaller alkane, becoming 0.4 in P450PMO. In P450PMO, catalytic efficiency is highest on propane and decreases along the alkane series, driven by decreasing kcat.

[2] = Reactions on alkanes, total turnovers (Table 18): octane; conditions: octane (8 C atoms); for % rel. act.: TTN normalized to the highest value of the variant's series; for TTN: total turnovers, standardized reaction conditions
Method: (§3) Reactions on alkanes. Reactions with alkanes from pentane to decane were carried out at 3 mL-scale using 100 mM KPi pH 8.0 buffer containing 2% ethanol (to allow alkane solubilization) and purified protein. 2.5 mL KPi buffer were added with 60 μL of 90 mM alkane solution in ethanol (final conc.=1.8 mM), 150 μL enzyme solution at 1 μM (final conc.=50 nM), and 300 μL NADPH regeneration solution (100 units/mL isocitrate dehydrogenase, 70 mg/mL isocitrate, 1.5 mg/ml NADP^+). Vials were sealed and stirred for 24 hours at 4° C. 1 mL-aliquot of the reaction was removed, added with 10 μl internal standard (25 mM 1-bromohexane in ethanol), and extracted with 200 μl chloroform (30 sec vortexing, 1 min centrifugation at 10000 g). The organic phase was removed and analyzed by gas chromatography. Reactions with ethane, propane, and butane were carried out as described for longer alkanes with the only difference that alkane-saturated KPi buffer was used. Propane reactions with variants from HL5 and L9 libraries were performed on 1 mL-scale reaction using 20 nM enzyme to reduce oxygen limitation. Propane and butane reactions were analyzed by direct injection of reaction solution on the GC using 1-pentanol as internal standard. Ethane reaction products were functionalized (see below) and analyzed by GC using 1-butanol as internal standard. All measurements were performed in triplicate.
as §2
(§4) TTNs for each variant-substrate pair were determined using standardized reaction conditions (identical enzyme and substrate concentration, incubation time, cofactor regeneration system) (Table 18). TTN values were used to assess performance because TTN is a cumulative measure of both catalytic and coupling efficiency and because mutants were selected based on improvement in this property. To facilitate comparison among the variants, TTNs were normalized to the highest value in the series (MTN=Maximal Turnover Number) and plotted for the increasing-sized substrates (FIG. 38). A gradual shift of the enzyme's substrate preference during laboratory evolution is evident from these profiles. The marginal activity of wild-type BM3 on these substrates (MTN=150) is restricted to the long-chain alkanes, where it is a promiscuous function of BM3's high C12-C20 fatty acid hydroxylase activity. In the first evolutionary intermediates, substrate preference centers on medium-chain alkanes […], reflecting their selection for activity on octane. In 35E11, selected for activity on propane, preference still centers on C6-C8 alkanes but now extends towards the shorter ones, including propane. Propane activity becomes prevalent with the transition from variant ETS8 to 19A12. […]

[3] = Reactions on alkanes, total turnovers (Table 18): heptane; conditions: heptane (7 C atoms); for % rel. act.: TTN normalized to the highest value of the variant's series; for TTN: total turnovers, standardized reaction conditions
Method: as §3, §2, §4

[4] = Reactions on alkanes, total turnovers (Table 18): decane; conditions: decane (10 C atoms); for % rel. act.: TTN normalized to the highest value of the variant's series; for TTN: total turnovers, standardized reaction conditions
Method: as §3, §2, §4

[5] = Kinetic constants for n-alkanes: hexane; conditions: N.a. = not active
Method: as §1, §2
To further investigate the evolution of substrate specificity, kinetic constants for the C5 to C8 alkanes were determined from Michaelis-Menten plots (Table 19). The preference of 35E11 and its evolutionary predecessors for medium-chain alkanes is indicated by their high C8/C5 specificities ((kcat/Km)8/(kcat/Km)5˜100), where Km appears to be the major contributing factor. […]

Molecule | Km [1] | kcat [1] | % rel. act. [2] [%] | TTN [2] | % rel. act. [3] [%] | TTN [3] | % rel. act. [4] [%] | TTN [4] | Km ([1]; read-out: Km) [µM] | Km [5] [µM] | kcat [5] [s⁻¹]
Wild-type BM-3: wild-type cytochrome P450 BM-3 from Bacillus megaterium, SEQ ID NO:1 (protein, listed as Bacillus megaterium) TIKEMPQPKTFGELKNLPLLNTDKPVQALMKIADELGEIFKFEAPGRVTRYLSSQRLIKEACDESRFDKNLSQALKFVRDFAGDGLFTSWTHEKNWKKAHNILLPSFSQQAMKGYHAMMVDIAVQLVQKWERLNADEHIEVPEDMTRLTLDTIGLCGFNYRFNSFYRDQPHPFITSMVRALDEAMNKLQRANPDDPAYDENKRQFQEDIKVMNDLVDKIIADRKASGEQSDDLLTHMLNGKDPETGEPLDDENIRYQIITFLIAGHETTSGLLSFALYFLVKNPHVLQKAAEEAARVLVDPVPSYKQVKQLKYVGMVLNEALRLWPTAPAFSLYAKEDTVLGGEYPLEKGDELMVLIPQLHRDKTIWGDDVEEFRPERFENPSAIPQHAFKPFGNGQRACIGQQFALHEATLVLGMMLKHFDFEDHTNYELDIKETLTLKPEGFVVKAKSKKIPLGGIPSPSTEQSAKKVRKKAENAHNTPLLVLYGSNMGTAEGTARDLADIAMSKGFAPQVATLDSHAGNLPREGAVLIVTASYNGHPPDNAKQFVDWLDQASADEVKGVRYSVFGCGDKNWATTYQKVPAFIDETLAAKGAENIADRGEADASDDFEGTYEEWREHMWSDVAAYFNLDIENSEDNKSTLSLQFVDSAADMPLAKMHGAFSTNVVASKELQQPGSARSTRHLEIELPKEASYQEGDHLGVIPRNYEGIVNRVTARFGLDASQQIRLEAEEEKLAHLPLAKTVSVEELLQYVELQDPVTRTQLRAMAAKTVCPPHKVELEALLEKQAYKEQVLAKRLTMLELLEKYPACEMKFSEFIALLPSIRPRYYSISSSPRVDEKQASITVSVVSGEAWSGYGEYKGIASNYLAELQEGDTITCFISTPQSEFTLPKDPETPLIMVGPGTGVAPFRGFVQARKQLKEQGQSLGEAHLYFGCRSPHEDYLYQEELENAQSEGIITLHTAFSRMPNQPKTYVQHVMEQDGKKLIELLDQGAHFYICGDGSQMAPAVEATLMKSYADVHQVSEADARLWLQQLEEKGRYAKDVWAG | n.m. | n.m. | 18.8 | 30 ± 42 | 12.5 | 20 ± 5 | 100.0 | 160 ± 95 | – | – | –
35-E11: P450 BM-3 variant, SEQ ID NO:7: 53-5H substitutions plus E464G and I710T (protein, mutant P450 35-E11 protein sequence) TIKEMPQPKTFGELKNLPLLNTDKPVQALMKIADELGEIFKFEAPGCVTRYLSSQRLIKEACDESRFDKNLSQALKFFRDFSGDGLFTSWTHEINWKKAHNILLPSFSQQAMKGYHAMMVDIAVQLVQKWERLNADEHIEVSEDMTRLTLDTIGLCGFNYRFNSFYRDQPHPFIISMVRALDEVMNKLQRANPDDPAYDENKRQCQEDIKVMNDLVDKIIADRKARGEQSDDLLTQMLNGKDPETGEPLDDGNISYQIITFLIAGHETTSGLLSFALYFLVKNPHVLQKVVEEAARVLVDPVPSYKQVKQLKYVGMVLNEALRLWPTFPAFSLYAKEDTVLGGEYPLEKGDEVMVLIPQLHRDKTIWGDDVEEFRPERFENPSAIPQHAFKPFGNGQRACIGQQFALHEATLVLGMMLKHFDFEDHTNYELDIKETLTLKPEGFVVKAKSKKIPLGGIPSPSTGQSAKKVRKKAENAHNTPLLVLYGSNMGTAEGTARDLADIAMSKGFAPQVATLDSHAGNLPREGAVLIVTASYNGHPPDNAKQFVDWLDQASADEVKGVRYSVFGCGDKNWATTYQKVPAFIDETLAAKGAENIADRGEADASDDFEGTYEEWREHMWSDVAAYFNLDIENSEDNKSTLSLQFVDSAADMPLAKMHGAFSTNVVASKELQQPGSARSTRHLEIELPKEASYQEGDHLGVIPRNYEGTVNRVTARFGLDASQQIRLEAEEEKLAHLPLAKTVSVEELLQYVELQDPVTRTQLRAMAAKTVCPPHKVELEALLEKQAYKEQVLAKRLTMLELLEKYPACEMKFSEFIALLPSIRPRYYSISSSPRVDEKQASITVSVVSGEAWSGYGEYKGIASNYLAELQEGDTITCFISTPQSEFTLPKDPETPLIMVGPGTGVAPFRGFVQARKQLKEQGQSLGEAHLYFGCRSPHEDYLYQEELENAQSEGIITLHTAFSRMPNQPKTYVQHVMEQDGKKLIELLDQGAHFYICGDGSQMAPAVEATLMKSYADVHQVSEADARLWLQQLEEKGRYAKDVWAG | – | 10.6 ± 1.38 s⁻¹ | 93.7 | 5950 ± 323 | 81.4 | 5170 ± 148 | 13.5 | 860 ± 223 | 200 ± 46 | 370 ± 33 | 11.8 ± 1.15

From patent US12258605B2, “Alkane oxidation by modified hydroxylases” (The California Institute of Technology, priority 2005, dated 2025)
